This note sets out measurements from article PMC9403797, “Back From the Dead: The Atypical Kinase Activity of a Pseudokinase Regulator of Cation Fluxes During Inducible Immunity” (Frontiers in Plant Science, 2022).

In the test the target is T1, MPK19 (Arabidopsis, UniProt Q9LUC3 1-598).
T1 construct: MPK19, MAPK family kinase, Arabidopsis; fusion protein spotted on the functional protein microarray; source: printed on protein microarrays (AtPMA-5000 and AtPMA-10000)
T1 sequence (looked up): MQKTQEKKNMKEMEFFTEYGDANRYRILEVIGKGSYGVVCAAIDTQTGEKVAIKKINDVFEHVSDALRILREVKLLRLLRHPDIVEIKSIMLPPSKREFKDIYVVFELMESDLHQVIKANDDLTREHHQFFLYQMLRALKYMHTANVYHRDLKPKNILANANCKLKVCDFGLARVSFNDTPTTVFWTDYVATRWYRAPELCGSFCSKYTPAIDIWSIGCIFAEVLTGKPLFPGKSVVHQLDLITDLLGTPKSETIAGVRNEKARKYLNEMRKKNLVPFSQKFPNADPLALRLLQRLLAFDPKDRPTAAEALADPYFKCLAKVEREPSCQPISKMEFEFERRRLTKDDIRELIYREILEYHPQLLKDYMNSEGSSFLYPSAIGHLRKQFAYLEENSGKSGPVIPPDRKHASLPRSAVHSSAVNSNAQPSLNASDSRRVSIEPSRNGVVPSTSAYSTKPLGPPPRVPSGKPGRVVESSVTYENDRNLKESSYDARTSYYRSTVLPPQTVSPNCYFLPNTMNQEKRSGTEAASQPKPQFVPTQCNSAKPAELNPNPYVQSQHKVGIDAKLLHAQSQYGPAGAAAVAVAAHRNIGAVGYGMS
The experiment in a line: peptide or protein array; functional protein microarrays (AtPMA-5000 and AtPMA-10000, about 15,000 Arabidopsis proteins) probed with 150 ul purified ILK1-V5 in solution for 1.5 h with 1% BSA, 5 mM MgCl2 and MnCl2; detected with Cy5-conjugated anti-V5 antibody; three probe arrays against two control arrays without probe; one-sided t-test, 5% significance, FDR. Particulars: both partners purified.

B1: ILK1-V5 (integrin-linked kinase 1, Arabidopsis) (enzyme, UniProt F4IS56 1-479, looked up)
chain: MENITAQLKRGISRQFSTGSIRRTLSRQFTRQSSLDPRRTNMRFSFGRQSSLDPIRRSPDSSKSDDEPHMSVPENLDSTMQLLFMASKGDVRGIEELLDEGIDVNSIDLDGRTALHIAACEGHLGVVKALLSRRANIDARDRWGSTAAADAKYYGNLDVYNLLKARGAKVPKTRKTPMTVSNPREVPEYELNPLEVQVRKSDGISKGAYQVAKWNGTRVSVKILDKDSYSDPERINAFRHELTLLEKVRHPNVIQFVGAVTQNIPMMIVVEYNPKGDLSVYLQKKGRLSPSKALRFALDIARGMNYLHECKPDPIIHCDLKPKNILLDRGGQLKISGFGMIRLSKISQDKAKVANHKAHIDLSNYYIAPEVYKDEIFDLRVDAHSFGVILYEITEGVPVFHPRPPEEVARMMCLEGKRPVFKTKSRSYPPDIKELIEKCWHPEAGIRPTFSEIIIRLDKIVANCSKQGWWKDTFKFPWK
notes: ILK1, integrin-linked kinase 1, a pseudokinase of the Raf-like MAP3K family, Arabidopsis; also called purified ILK1-V5 protein; source: purified as described previously (Brauer et al., 2014, 2016); purity validated by mass spectrometry
With B1, the binding result was “binds”.
